How the values were obtained:
[1] = target: FcγRIIb on the cell surface (UniProt P31994); assay: binding to FcγRIIb on the cell surface
[2] = target: recombinant human FcγRIIb (R&D Systems) (human) (UniProt P31994); assay: Biacore SPR
[3] = target: recombinant human FcγRIIb (R&D Systems) (human) (UniProt P31994); assay: Biacore SPR, global Langmuir fit (mean ± SD, n = 4)
[4] = target: human FcγRIIIa, V158 isoform (human) (UniProt P08637); assay: Biacore SPR [cont.]
FcγRIIaH (human) [5] = target: FcγRIIaH (human) (UniProt P12318); assay: Biacore SPR [cont.]
[6] = target: recombinant human FcγRIIb (R&D Systems) (human) (UniProt P31994); assay: Biacore SPR [cont.]
FcγRI (human) [7] = target: FcγRI (human) (UniProt P12314); assay: Biacore SPR [cont.]
FcγRIIaR (human) [8] = target: FcγRIIaR (human) (UniProt P12318); assay: Biacore SPR [cont.]
FcγRIIIaF (human) [9] = target: FcγRIIIaF (human) (UniProt P08637); assay: Biacore SPR [cont.]
[10] = target: human FcγRIIIa, V158 isoform (human) (UniProt P08637); assay: Biacore SPR
FcγRIIaR (human) [11] = target: FcγRIIaR (human) (UniProt P12318); assay: Biacore SPR
FcγRIIIaF (human) [12] = target: FcγRIIIaF (human) (UniProt P08637); assay: Biacore SPR
FcγRIIaH (human) [13] = target: FcγRIIaH (human) (UniProt P12318); assay: Biacore SPR
FcγRI (human) [14] = target: FcγRI (human) (UniProt P12314); assay: Biacore SPR

FcγRI (human), sequence (P12314 16-288 limits assumed): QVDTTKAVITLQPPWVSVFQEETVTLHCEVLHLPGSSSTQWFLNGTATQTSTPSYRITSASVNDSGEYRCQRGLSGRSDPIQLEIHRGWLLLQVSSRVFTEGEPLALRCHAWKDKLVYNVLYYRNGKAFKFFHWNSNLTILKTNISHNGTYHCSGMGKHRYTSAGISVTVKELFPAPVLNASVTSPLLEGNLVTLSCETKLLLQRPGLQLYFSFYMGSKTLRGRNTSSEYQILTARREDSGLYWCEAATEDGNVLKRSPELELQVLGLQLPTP
FcγRIIaH (human), sequence (P12318 34-217): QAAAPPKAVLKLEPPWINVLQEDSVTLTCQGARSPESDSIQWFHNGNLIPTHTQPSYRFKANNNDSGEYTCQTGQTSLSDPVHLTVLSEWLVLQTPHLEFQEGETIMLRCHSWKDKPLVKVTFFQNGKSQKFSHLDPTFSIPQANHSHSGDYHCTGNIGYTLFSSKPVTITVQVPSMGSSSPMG
human FcγRIIIa, V158 isoform (human), sequence (P08637 17-208 F176V limits assumed): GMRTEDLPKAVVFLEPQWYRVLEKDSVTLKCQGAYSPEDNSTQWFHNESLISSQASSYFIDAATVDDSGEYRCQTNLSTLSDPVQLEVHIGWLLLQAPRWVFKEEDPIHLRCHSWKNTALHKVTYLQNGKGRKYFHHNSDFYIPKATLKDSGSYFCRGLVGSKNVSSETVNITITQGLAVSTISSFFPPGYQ
FcγRIIIaF (human), sequence (P08637 17-208 limits assumed): as the sequence (P08637 17-208 F176V limits assumed) above, with V160F counted along it
FcγRIIb on the cell surface, sequence (P31994 43-310 limits assumed): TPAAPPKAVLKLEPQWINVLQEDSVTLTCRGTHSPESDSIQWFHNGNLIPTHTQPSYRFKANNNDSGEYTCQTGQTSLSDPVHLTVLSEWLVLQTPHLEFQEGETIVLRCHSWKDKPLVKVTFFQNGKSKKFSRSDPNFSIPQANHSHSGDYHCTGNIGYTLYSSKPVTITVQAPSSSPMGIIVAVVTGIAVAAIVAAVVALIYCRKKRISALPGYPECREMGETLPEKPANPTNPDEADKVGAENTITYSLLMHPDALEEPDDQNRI
recombinant human FcγRIIb (R&D Systems) (human), sequence (P31994 46-217 limits assumed): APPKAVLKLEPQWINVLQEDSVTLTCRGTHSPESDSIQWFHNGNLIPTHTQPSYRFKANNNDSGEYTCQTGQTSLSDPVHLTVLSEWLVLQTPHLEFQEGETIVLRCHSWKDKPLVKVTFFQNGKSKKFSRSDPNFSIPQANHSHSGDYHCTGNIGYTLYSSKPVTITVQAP

| Substance | EC50 [1] [nM] | Fold (against native IgG1) [1] [fold] | Fold (KD native IgG1/KD variant) [2] [fold] | Kd [3] [nM] | Kd [4] [nM] | Kd (FcγRIIaH (human) [5]) [nM] | Kd [6] [nM] | Kd (FcγRI (human) [7]) [nM] | Kd (FcγRIIaR (human) [8]) [nM] | also measured |
| --- | --- | --- | --- | --- | --- | --- | --- | --- | --- | --- |
| S267E (antibody) | 25 | 18 | 30 |  |  |  |  |  |  |  |
| G236D (antibody) |  |  | 1.8 | 1000 |  |  |  |  |  |  |
| S239D (antibody) |  |  |  | 380 |  |  |  |  |  |  |
| G236D/S267E (antibody) | 6 |  |  | 25 | 579 | 2730 | 26.6 | 3.71 |  |  |
| S267E/L328F (antibody) | 1.4 | 320 | 430 | 4.2 | 5040 | 923 | 6.06 | 0.22 | 3.12 | Fold [4]: 0.038; Fold (FcγRIIaR (human) [8]): 275; Fold (FcγRIIaH (human) [5]): 0.7; Fold [6]: 242; Fold (FcγRI (human) [7]): 1.5 |
| S239D/S267E (antibody) | 2 | 220 | 150 | 12 | 51.2 | 510 | 13.3 | 0.0142 | 7.16 | Fold [4]: 3.74; Fold (FcγRIIaR (human) [8]): 120; Fold (FcγRIIIaF (human) [9]): 2.62; Kd (FcγRIIIaF (human) [9]): 516 nM; Fold (FcγRIIaH (human) [5]): 1.27; Fold [6]: 111; Fold (FcγRI (human) [7]): 23.2 |
| Native IgG1 (antibody) | 440 |  |  | 1800 |  |  |  |  |  | Kd [10]: 191 nM; Kd (FcγRIIaR (human) [11]): 859 nM; Kd (FcγRIIIaF (human) [12]): 1350 nM; Kd (FcγRIIaH (human) [13]): 646 nM; Kd [2]: 1470 nM; Kd (FcγRI (human) [14]): 0.329 nM |
| S239D/I332E (antibody) |  |  |  |  |  | 163 | 101 | 0.0374 | 68.6 | Kd (FcγRIIIaF (human) [9]): 28.2 nM |
| L328F (antibody) |  |  |  | 640 |  |  |  |  |  |  |

From US20110189178A1
